Measurements published in patent publication US20210170043A1, “DC-SIGN ANTIBODY CONJUGATES COMPRISING STING AGONISTS” (NOVARTIS AG, priority 2018, published 2021).
Where a chain is given by its changes, count along the chain named. Numbers in names are those of the source.

T1: human L-SIGN (Homo sapiens, UniProt Q9H2X3)
T1 construct: expressed in transfected cells; host or cells: K562, retroviral transduction
T1 sequence (Q9H2X3 1-399): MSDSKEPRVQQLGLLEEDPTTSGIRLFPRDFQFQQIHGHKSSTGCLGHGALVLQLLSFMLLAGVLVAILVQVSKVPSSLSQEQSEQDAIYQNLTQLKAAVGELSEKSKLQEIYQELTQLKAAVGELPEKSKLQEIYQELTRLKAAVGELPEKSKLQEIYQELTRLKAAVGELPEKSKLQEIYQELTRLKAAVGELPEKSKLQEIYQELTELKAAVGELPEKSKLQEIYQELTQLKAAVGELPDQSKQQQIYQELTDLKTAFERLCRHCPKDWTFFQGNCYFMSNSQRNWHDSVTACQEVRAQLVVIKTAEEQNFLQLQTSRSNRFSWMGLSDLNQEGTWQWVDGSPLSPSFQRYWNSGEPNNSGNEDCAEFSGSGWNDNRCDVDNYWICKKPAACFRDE

T2: human DC-SIGN (Homo sapiens, UniProt Q9NNX6)
T2 construct: expressed in transfected cells
T2 sequence (Q9NNX6 1-404): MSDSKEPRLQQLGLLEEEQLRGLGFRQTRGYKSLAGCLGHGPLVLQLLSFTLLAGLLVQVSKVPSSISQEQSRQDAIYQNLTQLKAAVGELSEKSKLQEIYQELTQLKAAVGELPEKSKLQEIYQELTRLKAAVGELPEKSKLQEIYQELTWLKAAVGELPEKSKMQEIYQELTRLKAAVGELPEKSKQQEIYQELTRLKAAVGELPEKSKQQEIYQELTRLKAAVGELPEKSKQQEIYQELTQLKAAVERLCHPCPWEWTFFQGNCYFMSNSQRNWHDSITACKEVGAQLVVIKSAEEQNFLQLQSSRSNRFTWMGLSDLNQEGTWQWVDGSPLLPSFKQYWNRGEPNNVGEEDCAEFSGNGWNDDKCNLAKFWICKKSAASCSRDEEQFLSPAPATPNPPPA

B1: 2B2 Chimeric: chimeric antibody chains comprising a murine variable region and human constant region (antibody)
heavy: EVQLQQSGAELVRPGSSVKMSCKTSGYTFTNYGINWVKQRPGQGLEWIGYIYIGNDYTEYNERFKGKATLTSDTSSSTAHIQLNSLTSEDSAIYFCARLYYGSSLYSYAMDYWGQGTSVTVSSASTKGPSVFPLAPSSKSTSGGTAALGCLVKDYFPCPVTVSWNSGALTSGVHTFPAVLQSSGLYSLSSVVTVPSSSLGTQTYICNVNHKPSNTKVDKRVEPKSCDKTHTCPPCPAPELLGGPSVFLFPPKPKDTLMISRTPEVTCVVVAVSHEDPEVKFNWYVDGVEVHNAKTKPREEQYNSTYRVVSVLTVLHQDWLNGKEYKCKVSNKALAAPIEKTISKAKGQPREPQVYTLPPSREEMTKNQVSLTCLVKGFYPCDIAVEWESNGQPENNYKTTPPVLDSDGSFFLYSKLTVDKSRWQQGNVFSCSVMHEALHNHYTQKSLSLSPGK
light: DIVMTQAAPSVSVTPGESVSISCRSSKSLLHSSGNTYLYWFLQRPGQSPQLLISRMSNLASGVPDRFSGSGSGTAFTLRISRVEAEDVGVYYCMQHLEYPYTFGGGTKLELKRTVAAPSVFIFPPSDEQLKSGTASVVCLLNNFYPREAKVQWKVDNALQSGNSQESVTEQDSKDSTYSLSSTLTLSKADYEKHKVYACEVTHQGLSSPVTKSFNRGEC
B2: 952P16 N92Q: optimization of sequences by removal of post-translational modifications, non-preferred sites; substitutions made by site directed mutagenesis (antibody)
heavy: QVTLRESGPALVKPTQTLTLTCTFSGFSLSTSGVSVSWIRQPPGKALEWLALIDWDDDKYYSTSLKTRLTISKDTSKNQVVLTMTNMDPVDTATYYCARTPSGSYGRYFDLWGRGTLVTVSSASTKGPSVFPLAPSSKSTSGGTAALGCLVKDYFPCPVTVSWNSGALTSGVHTFPAVLQSSGLYSLSSVVTVPSSSLGTQTYICNVNHKPSNTKVDKRVEPKSCDKTHTCPPCPAPELLGGPSVFLFPPKPKDTLMISRTPEVTCVVVAVSHEDPEVKFNWYVDGVEVHNAKTKPREEQYNSTYRVVSVLTVLHQDWLNGKEYKCKVSNKALAAPIEKTISKAKGQPREPQVYTLPPSREEMTKNQVSLTCLVKGFYPCDIAVEWESNGQPENNYKTTPPVLDSDGSFFLYSKLTVDKSRWQQGNVFSCSVMHEALHNHYTQKSLSLSPGK
light: DIQMTQSPSTLSASVGDRVTITCRASQSISNWLAWYQQKPGKAPKLLIYKASSLESGVPSRFSGSGSGTEFTLTISSLQPDDFATYYCQQYQSYWTFGQGTKVEIKRTVAAPSVFIFPPSDEQLKSGTASVVCLLNNFYPREAKVQWKVDNALQSGNSQESVTEQDSKDSTYSLSSTLTLSKADYEKHKVYACEVTHQGLSSPVTKSFNRGEC
B3: 952G04 N92Q: optimization of sequences by removal of post-translational modifications, non-preferred sites; substitutions made by site directed mutagenesis (antibody)
heavy: B2 heavy with S37T, T70A
light: B2 light with N31T, K50E
B4: 960K03 N92S: optimization of sequences by removal of post-translational modifications, non-preferred sites; substitutions made by site directed mutagenesis (antibody)
heavy: QVTLRESGPALVKPTQTLTLTCTFSGFSLSTGGMSVSWIRQPPGKALEWLALIDWDDDKYYSTSLKTRLTISKDTSKNQLVLTMTNMDPVDTATYYCARAHSGSYFDFWGQGTLVTVSSASTKGPSVFPLAPSSKSTSGGTAALGCLVKDYFPCPVTVSWNSGALTSGVHTFPAVLQSSGLYSLSSVVTVPSSSLGTQTYICNVNHKPSNTKVDKRVEPKSCDKTHTCPPCPAPELLGGPSVFLFPPKPKDTLMISRTPEVTCVVVAVSHEDPEVKFNWYVDGVEVHNAKTKPREEQYNSTYRVVSVLTVLHQDWLNGKEYKCKVSNKALAAPIEKTISKAKGQPREPQVYTLPPSREEMTKNQVSLTCLVKGFYPCDIAVEWESNGQPENNYKTTPPVLDSDGSFFLYSKLTVDKSRWQQGNVFSCSVMHEALHNHYTQKSLSLSPGK
light: B2 light with S28R, Y91F, Q92S
B5: 1G12 Hz: humanized VL and VH domains of antibody 1G12 (antibody)
heavy: QVQLQESGPGLVKPSETLSLTCTVSGFSLTNYGVHWIRQPPGKGLEWIGVIWRGESTDYNAAFMSRVTISKDDSKSQVSLKLSSVTAADTAVYYCARNGGSSGWYFDVWGQGTTVTVSSASTKGPSVFPLAPSSKSTSGGTAALGCLVKDYFPCPVTVSWNSGALTSGVHTFPAVLQSSGLYSLSSVVTVPSSSLGTQTYICNVNHKPSNTKVDKRVEPKSCDKTHTCPPCPAPELLGGPSVFLFPPKPKDTLMISRTPEVTCVVVAVSHEDPEVKFNWYVDGVEVHNAKTKPREEQYNSTYRVVSVLTVLHQDWLNGKEYKCKVSNKALAAPIEKTISKAKGQPREPQVYTLPPSREEMTKNQVSLTCLVKGFYPCDIAVEWESNGQPENNYKTTPPVLDSDGSFFLYSKLTVDKSRWQQGNVFSCSVMHEALHNHYTQKSLSLSPGK
light: DIQLTQSPSFLSASVGDRVTITCKASQDVTSAVAWYQQKPGKAPKLLIYWTSTRHTGVPSRFSGSGSGTEYTLTISSLQPEDFATYYCQQHYTTPLTFGQGTKLEIKRTVAAPSVFIFPPSDEQLKSGTASVVCLLNNFYPREAKVQWKVDNALQSGNSQESVTEQDSKDSTYSLSSTLTLSKADYEKHKVYACEVTHQGLSSPVTKSFNRGEC

Assays:
human L-SIGN = molecular target: T1, human L-SIGN; test: FACS binding to K562 cells expressing human L-SIGN (selectivity); details: FACS MFI
Protocol: (§1) The affinity of various antibodies and ADCs to DC-SIGN and its species orthologues was determined using FACS. Purified IgGs were titrated to determine EC50 values for binding to cell surface expressed DC-SIGN.
(§2) For this purpose, human DC-SIGN expressing or cynomolgus monkey DC-SIGN expressing stable CHO cell lines or K562 expressing DC-SIGN or K562 expressing L-SIGN cell lines were checked for density and viability using VICELL (Beckman Coulter), and washed once with 4° C. PBS. Cells were stained with DAPI (0.5 ug/mL) diluted in PBS for 30 min on ice. Cells were diluted into 4° C. FACS buffer (PBS, 10 mM EDTA, 2% FBS). 125 μl of cells were seeded (10,000 cells/well) into 96-well v-bottom plates (Nunc cat#442587) and centrifuged for 4 min at 1500 rpm at 4° C. Supernatant was removed. Cells were incubated with a serial dilution of each anti-DC-SIGN antibody in FACS buffer at concentrations ranging across several logs with a top concentration no higher than 50 μg/mL for 60 minutes at 4° C. Following incubation, cells were spun down (1500 rpm, 4 min, 4° C.) and washed two times with FACS buffer. A fluorophore-conjugated anti-hFc gamma-AF-647 (Southern Biotechnology) detection antibody was added at 1:400 and samples were incubated for 1 h on ice in the dark. Following incubation, FACS buffer was added, and the cells were spun down (1500 rpm, 4 min, 4° C.) and washed two times with FACS buffer. After the final wash, cells were resuspended in Fixative Buffer (Biolegend, 420801) and 90 μl of FACS buffer followed by readout on the flow cytometry machine (BD LSRFortessa Cell Analyzer; Cat #647177). Geometric Mean fluorescence intensity (MFI) of live, single cells was calculated in Flowjo 10.4.2 and exported into Graphpad Prism7 for EC50 determination.
Selectivity was assessed by measuring apparent binding affinities to isogenic cell pairs engineered to overexpress DC-SIGN as well as cell lines expressing DC-SIGN paralog L-SIGN.

human DC-SIGN [1] = molecular target: T2, human DC-SIGN; test: FACS binding to K562 cells expressing human DC-SIGN; details: FACS MFI
Protocol: as §1, §2

human DC-SIGN [2] = molecular target: T2, human DC-SIGN; test: FACS binding to CHO cells stably expressing human DC-SIGN; details: FACS MFI, average
Protocol: as §1, §2

[3] = system: cynomolgus monkey DC-SIGN; test: FACS binding to CHO cells stably expressing cynomolgus monkey DC-SIGN; details: FACS MFI, average
Sequence of cynomolgus monkey DC-SIGN (as listed by the source): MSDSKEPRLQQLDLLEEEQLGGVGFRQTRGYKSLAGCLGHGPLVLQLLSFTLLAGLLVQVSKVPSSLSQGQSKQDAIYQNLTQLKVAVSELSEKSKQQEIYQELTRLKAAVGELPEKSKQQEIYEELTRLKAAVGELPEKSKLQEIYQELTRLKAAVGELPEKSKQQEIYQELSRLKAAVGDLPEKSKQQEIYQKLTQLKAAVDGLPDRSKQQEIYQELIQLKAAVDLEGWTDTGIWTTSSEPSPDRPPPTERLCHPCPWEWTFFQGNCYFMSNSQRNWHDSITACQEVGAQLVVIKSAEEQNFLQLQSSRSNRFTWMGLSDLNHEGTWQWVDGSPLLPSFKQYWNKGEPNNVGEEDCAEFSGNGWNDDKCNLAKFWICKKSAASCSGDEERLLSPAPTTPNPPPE
Protocol: as §1, §2
In a similar experiment the antibodies were tested for cross-reactivity using engineered isogenic matched cell line.

Molecule | human L-SIGN K562 EC50 (human L-SIGN) [µg/mL] | human DC-SIGN K562 EC50 (human DC-SIGN [1]) [µg/mL] | human DC-SIGN CHO EC50 (ug/mL) ave. (human DC-SIGN [2]) [µg/mL] | cyno DC-SIGN CHO EC50 (ug/mL) ave. [3] [µg/mL]
B1 | >10 |  |  | 
B2 | >10 | 0.024 |  | 
B3 | >10 | 0.017 | 0.07 | 0.02
B4 |  | 0.049 | 0.06 | 0.08
B5 | >10 | 0.021 | 0.07 | 0.06
